Assay results taken from patent US20230303681A1 (published 2023).

How the values were obtained:
[1] = target: T1, GST-fusion human TMEM106B truncated (human); assay: epitope binning, array SPR (Community 3, Bin 5)
T1 construct: also called GST-TMEM106B-truncated protein; GST-TMEM106B (truncated)
Experimental: Epitope binning of the anti-TMEM106B antibodies was performed by Carterra (Salt Lake City, Nevada, USA) using a pre-mix epitope binning approach.

[2] = target: T2, human TMEM106B (human, UniProt Q9NUM4 2-274); assay: FACS HeLa;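 further: flow cytometry of cells incubated with hybridoma supernatant or purified antibody at 10 µg/ml for 1 h on ice, propidium iodide–positive dead cells gated out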
T2 construct: Full-length, on transiently transfected HEK293 cells, or natively expressed on HeLa, U251 and A549 cells; also called huTMEM106B; huTMEM

[3] = target: T2, human TMEM106B; assay: FACS, HEK293 transfectants;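 on fold over negative controls: hybridoma supernatants incubated 30 min on ice with human TMEM106B-expressing HEK293 cells, binding read as anti-mouse-APC median fluorescence on live cells, relative to secondary-antibody-only wells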;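 on fold-change over parental HEK293: flow cytometry binding of hybridoma supernatants to HEK293 cells transiently expressing human, cyno or mouse TMEM106B, read as anti-mouse-APC median fluorescence, live cells only, 30 min on ice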
Experimental: Initial screening of the anti-TMEM106B hybridomas was performed as follows.
For screening of the hybridoma cell culture supernatants, humanTMEM106B-transfected HEK293 cells were aliquoted in 96-well round bottom plates (2x10^5 cells per well) and incubated with 50 µL of hybridoma cell culture supernatant on ice for 30 minutes. […] Cell sorting was performed on a FACS Canto system (BD Biosciences) or iQue (Intellicyt), with sort gates drawn to exclude dead (i.e., propidium iodide-positive) cells. Median fluorescence intensity (MFI) of anti-mouse-APC MFI on TMEM106B+ HEK293 cells was calculated for each clone, and those displaying a signal of at least 2-fold over background compared to a secondary-antibody only well were taken forward for further analysis and characterization.

[4] = target: T2, human TMEM106B; assay: FACS HEK+huTMEM, 1.0 ug/ml
Experimental: (§1) Purified anti-TMEM106B antibodies were evaluated for their binding affinity to various TMEM106B-expressing cell lines including HEK293 transiently transfected with human/cyno/mouse TMEM106B, as well as HeLa cells and A549 cells. Antibodies tested for this experiment were mouse IgGs purified from hybridoma supernatant. Affinity binding to cells was determined as follows. Briefly, 1x10^5 cells were aliquoted per well in 96-well round bottom plates and incubated with 50 µL of purified anti-TMEM106B antibody at various concentrations (10x dilutions starting at 10 µg/ml) in FACS buffer (PBS + 2% FBS + 1 mM EDTA). […] Sorting was performed on a iQue (Intellicyt), with sort gates drawn to exclude dead (propidium iodide +) cells. Binding data was analyzed using median fluorescent intensity (MFI) and graphed in Prism. Values presented are MFI.

[5] = target: T3, GST (Pierce) (UniProt P08515 1-218 = GST, limits assumed); assay: ELISA, coated GST;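 further: ELISA on plates coated with GST alone at 1-10 µg/ml, antibodies applied at 100-1000x dilution, bound antibody detected by peroxidase substrate colour after acid stop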
T3 construct: control for the GST part of the fusion protein; also called GST protein; Glutathione-S-transferase

[6] = target: T2, human TMEM106B; assay: FACS HEK+huTMEM, 0.1 ug/ml;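 further: flow cytometry binding of purified mouse IgG antibodies to HEK293 cells transiently expressing TMEM106B, read as median fluorescence intensity with propidium iodide positive dead cells gated out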
[7] = target: T2, human TMEM106B; assay: FACS A549, 10 ug/ml
[8] = target: T2, human TMEM106B; assay: FACS U251;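 further: flow cytometry of cells exposed to antibody (purified at 10 µg/mL, or hybridoma supernatant) for 1 h on ice, with propidium iodide-positive dead cells gated out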
Experimental: (§2) All cells were cultured in either T75 or T150 flasks. […] The enzyme was quenched by addition of fresh media, and the cells were then distributed into 96-well plates for FACS analysis.
(§3) FACS analysis was performed as follows. Each cell type was aliquoted in 96-well round bottom plates (2x10^5 cells per well), washed once with FACS buffer (PBS + 2% FBS + 1 mM EDTA), and incubated with 50 µL of hybridoma supernatant or purified antibody (10 µg/ml in FACS buffer) on ice for 1 hour. […] Following this secondary incubation, the cells were again washed 2x with ice-cold FACS buffer and resuspended in a final volume of 50 µL of FACS buffer + 0.25 µl/well propidium iodide (Fisher Scientific # BDB556463). Analysis was performed on a FACSCanto system (BD Biosciences) or iQue (Intellicyt), with sort gates drawn to exclude dead (i.e., propidium iodide positive) cells.
(§4) Data is presented as mean fluorescence intensity (MFI).

[9] = target: T2, human TMEM106B; assay: FACS HEK+huTMEM, 0.01 ug/ml
Experimental: as §1

[10] = target: T2, human TMEM106B; assay: FACS A549, 1 ug/ml
[11] = target: T4, mouse TMEM106B (mouse, UniProt Q80X71 2-275); assay: FACS Neuro2a;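 further: flow cytometry of cells stained with antibody or hybridoma supernatant (purified antibody at 10 µg/ml) for 1 h on ice, propidium iodide–positive dead cells gated out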
T4 construct: on transiently transfected HEK293 cells, or natively expressed on mouse Neuro2a cells; also called moTMEM106B; murine TMEM106B
Experimental: as §2, §3, §4

[12] = target: T2, human TMEM106B; assay: FACS, HEK293 transfectants; remark: listed apart in the source;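 on fold over negative controls: hybridoma supernatants incubated 30 min on ice with human TMEM106B-expressing HEK293 cells, binding read as anti-mouse-APC median fluorescence on live cells, relative to secondary-antibody-only wells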;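 on fold-change over parental HEK293: flow cytometry binding of hybridoma supernatants to HEK293 cells transiently expressing human, cyno or mouse TMEM106B, read as anti-mouse-APC median fluorescence, live cells only, 30 min on ice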
[13] = target: T5, cynomolgus (cyno) TMEM106B (cynomolgus, UniProt Q9NUM4 2-274 (human entry)); assay: FACS, HEK293 transfectants;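 further: flow cytometry binding of hybridoma supernatants to HEK293 cells transiently expressing human, cyno or mouse TMEM106B, read as anti-mouse-APC median fluorescence, live cells only, 30 min on ice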
T5 construct: on transiently transfected HEK293 cells

[14] = target: T4, mouse TMEM106B; assay: FACS, HEK293 transfectants;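 further: flow cytometry binding of hybridoma supernatants to HEK293 cells transiently expressing human, cyno or mouse TMEM106B, read as anti-mouse-APC median fluorescence, live cells only, 30 min on ice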
[15] = target: T2, human TMEM106B; assay: FACS HEK+huTMEM, 10 ug/ml;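 further: purified mouse IgG antibodies at 10 µg/ml bound to HEK293 cells transiently expressing human TMEM106B, measured by flow cytometry as median fluorescence intensity of propidium iodide negative live cells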
Experimental: as §1

[16] = target: T2, human TMEM106B; assay: FACS A549

B1: anti-TMEM106B antibody TM-14 (antibody, V domains shown)
VH: QVQLQQSGPELVRPGTSVKVSCKASGYAFTNYLIEWVKQRPGQGLEWIGVINPGGGNTDYSEKFKDKATLTADKSSNTAYIQLSSLTSEDSAVYFCARSPYSSYVGYAVDYWGQGTSVTVSS
VL: DIQMTQSPSSLSASLGERVSLTCRASQDIGSNLNWLQQEPDGTIKRLIYATSSLDSGVPKRFSGSRSGSDYSLTISSLESEDFVVYYCLQYASSPRTFGGGTRLEIK
notes: mouse IgG from hybridoma
In the case of B1, the binding result [1] is reported as “no binding (tested: 55 nM antigen)”, the MFI [2] is reported as 307 and the “fold over negative controls” value [3] is reported as over 2 fold. For the same binder, the MFI [4] was 680, the binding result [5] was “no binding” and the MFI [6] was 364. For the same binder, the MFI [7] was 438, the MFI [8] was 270 and the MFI [9] was 314. For the same binder, the MFI [10] was 409, the MFI [11] was 300 and the “fold-change over parental HEK293” value [12] was 3.96 fold. For the same binder, the “fold-change over parental HEK293” value [13] was 4.56 fold, the “fold-change over parental HEK293” value [14] was 1.77 fold and the MFI [15] was 1190. For the same binder, the MFI [16] was 896.

B2: anti-TMEM106B antibody TM-31 (antibody, V domains shown)
VH: QVQLQQSGAELAKPGASVKVSCKASGYTFISYWMNWVKQRPGQGLEWIGYINPTSGYTRYNQKFKDKATLTADKSSSTAYMQLSSLTYEDSAVYYCARSPPTVVLIGYFDYWGQGTTLTVSS
VL: DIKMTQSPSSMYASLGERVTFTCKASQDINSYLSWFQQKPGKSPKTLIYRGNGLVDGVPSRFSGSGSGQDYSLTISSLEYEDMGIYYCLQYDEFPFTFASGTKLEIK
notes: mouse IgG from hybridoma
B2 was tested, and the binding result [1] was “no binding (tested: 55 nM antigen)”, the MFI [2] was 799 and the “fold over negative controls” value [3] was over 2 fold. The MFI [4] was 3680, the binding result [5] was “no binding” and the MFI [6] was 1390. The MFI [7] was 527, the MFI [8] was 352 and the MFI [9] was 596. The MFI [10] was 403, the MFI [11] was 325 and the “fold-change over parental HEK293” value [12] was 22.1 fold. For the same binder, the “fold-change over parental HEK293” value [13] was 64.7 fold, the “fold-change over parental HEK293” value [14] was 68.7 fold and the MFI [15] was 6060.

B3: anti-TMEM106B antibody TM-8 (antibody, V domains shown)
VH: QIQLVQSGPELKKPGETVKISCKASGYTFTDYPMHWVKQAPGKGFKWMGVIYTDTGEPKYAEVFKGRFAFSLETSASTAYLQINNLKNEDTATYFCVRRLAYWGQGTLVTVSA
VL: DIKMTQSPSSMYASLGERVTITCKASQDINSYLSWFQQKPGKSPKTLIFRANRLVDGVPSRFSGSGSGQDYSLTISSLEYEDMGIYYCLQYDEFPLTFGAGTKLEMK
notes: mouse IgG from hybridoma
In the case of B3, the binding result [1] is reported as “no binding (tested: 55 nM antigen)”, the MFI [2] is reported as 568 and the “fold over negative controls” value [3] is reported as over 2 fold. For the same binder, the MFI [4] was 317, the binding result [5] was “no binding” and the MFI [6] was 305. It also gave an MFI [7] of 492, an MFI [8] of 304 and an MFI [9] of 301. The MFI [10] was 393, the MFI [11] was 370 and the “fold-change over parental HEK293” value [12] was 2.1 fold. For the same binder, the “fold-change over parental HEK293” value [13] was 2.62 fold, the “fold-change over parental HEK293” value [14] was 1.63 fold and the MFI [15] was 465. It also gave an MFI [16] of 554.

B4: anti-TMEM106B antibody TM-15 (antibody, V domains shown)
VH: QVQLQQPGAEFVRPGASVKLSCKASGYTFTNYWITWVKQRPGHGLEWIGDIYPGSGNSNYNESFKRKATLTVDTSSSTAYMHLSSQTSEDSAVYFCARKAYGGFPYWGQGTLVTVSA
VL: DIQMTQSPASLSVSVGETVTITCRVSENIYNNLAWYQQKQEKSPQLLVFAATNLADGVPSRFSGSGSGTQFSLKINSLQSEDFGTYYCQHFWDTPFTFGSGTKLEIK
notes: mouse IgG from hybridoma
For B4, the binding result [1] was “no binding (tested: 55 nM antigen)”, the MFI [2] was 660 and the “fold over negative controls” value [3] was over 2 fold. The MFI [4] was 14300, the binding result [5] was “no binding” and the MFI [6] was 2060. It also gave an MFI [7] of 1980, an MFI [8] of 382 and an MFI [9] of 584. For the same binder, the MFI [10] was 650, the MFI [11] was 470 and the “fold-change over parental HEK293” value [12] was 31.4 fold. For the same binder, the “fold-change over parental HEK293” value [13] was 57.7 fold, the “fold-change over parental HEK293” value [14] was 46.8 fold and the MFI [15] was 63100. For the same binder, the MFI [16] was 938.
